Experimental data reported in patent US5378822, “Nucleic acids encoding murine and human Ah receptors” (Wisconsin Alumni Research).

Tests used:
[1] = target: AhR-ARNT heterodimer (human AhR + human ARNT) (Homo sapiens, UniProt P35869;P27540 P35869:1-848,P27540:1-789); assay: EMSA; 20 nM TCDD, 2 h room temperature; poly dIdC; ligand dependent; conditions: tags: reticulocyte lysate TNT; label: 32P end-label; 5' TCGA overhangs
Experimental: (§1) A complementary pair of synthetic oligonucleotides, 5'-[…]-3' Sequence ID. No. 16 and 5'-TCGAGCTGGGC-CCATTGCGTGATCTAC-3' Sequence ID. No. 17 (containing DRE3) were annealed and end-labeled with gamma ^32P-labeled deoxyadenosine triphosphate as described. Sambrook, J., Fritsch, E. F., Maniatis, T., *Molecular Cloning: A Laboratory Manual/second edition* (Cold Spring Harbor Laboratory Press, 1989). Cytosolic extracts (35 μg of protein) obtained from either human SCC cells or murine Hepa 1c1c7 cells (From James P. Whitlock Jr.) were incubated in the presence of DMSO (−) or 20 nM TCDD (+) for 2 hours at either room temperature (human) or 30° (murine). Nonspecific competitor, poly dIdC, was added and incubated 15 minutes at room temperature. The radiolabeled probe was then added and incubated 15 minutes at room temperature followed by nondenaturing gel electrophoresis. In vitro translated human AhR and ARNT proteins were incubated with either DMSO (−) or 20 nM TCDD (+) for 2 hours at room temperature followed by gel shift assays as described above. In vitro translated mouse AhR and humanARNT proteins were incubated with either DMSO (−) or 20 nM TCDD (+) for 2 hours at 30° followed by electrophoretic mobility shift assays.

[2] = target: ARNT alone (Homo sapiens, UniProt P27540 P27540:1-789); assay: EMSA; no binding without AhR; conditions: label: 32P end-label; 5' TCGA overhangs
Sequence of ARNT alone (P27540 whole entry, one chain of several): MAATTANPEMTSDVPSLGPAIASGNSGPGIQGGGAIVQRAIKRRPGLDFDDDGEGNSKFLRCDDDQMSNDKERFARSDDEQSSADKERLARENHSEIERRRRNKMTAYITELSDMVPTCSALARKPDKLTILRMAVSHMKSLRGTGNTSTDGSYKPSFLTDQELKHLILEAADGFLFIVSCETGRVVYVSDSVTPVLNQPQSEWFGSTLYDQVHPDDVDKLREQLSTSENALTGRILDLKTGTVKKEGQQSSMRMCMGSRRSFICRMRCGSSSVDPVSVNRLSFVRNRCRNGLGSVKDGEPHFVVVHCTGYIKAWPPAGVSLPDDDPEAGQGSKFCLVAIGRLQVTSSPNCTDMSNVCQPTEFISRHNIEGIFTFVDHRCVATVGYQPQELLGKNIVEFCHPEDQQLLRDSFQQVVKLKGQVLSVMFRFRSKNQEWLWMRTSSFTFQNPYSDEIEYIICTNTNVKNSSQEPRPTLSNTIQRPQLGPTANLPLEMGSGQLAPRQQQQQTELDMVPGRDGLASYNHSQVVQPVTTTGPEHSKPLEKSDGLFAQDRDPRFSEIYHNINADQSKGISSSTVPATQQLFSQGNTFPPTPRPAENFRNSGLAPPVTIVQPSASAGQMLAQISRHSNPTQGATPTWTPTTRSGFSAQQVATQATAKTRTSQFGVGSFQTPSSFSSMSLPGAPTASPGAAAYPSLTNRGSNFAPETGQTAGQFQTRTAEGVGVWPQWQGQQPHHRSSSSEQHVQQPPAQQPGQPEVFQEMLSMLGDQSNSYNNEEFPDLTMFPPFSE
Experimental: as §1

[3] = target: AhR-ARNT heterodimer (mouse AhR + human ARNT) (Mus musculus / Homo sapiens, UniProt P30561;P27540 P30561:1-805,P27540:1-789); assay: EMSA; 20 nM TCDD, 2 h 30 C; poly dIdC; ligand dependent; conditions: tags: reticulocyte lysate TNT; label: 32P end-label; 5' TCGA overhangs
Sequence of AhR-ARNT heterodimer (mouse AhR + human ARNT) (P30561 1-805, chain 1 of 2): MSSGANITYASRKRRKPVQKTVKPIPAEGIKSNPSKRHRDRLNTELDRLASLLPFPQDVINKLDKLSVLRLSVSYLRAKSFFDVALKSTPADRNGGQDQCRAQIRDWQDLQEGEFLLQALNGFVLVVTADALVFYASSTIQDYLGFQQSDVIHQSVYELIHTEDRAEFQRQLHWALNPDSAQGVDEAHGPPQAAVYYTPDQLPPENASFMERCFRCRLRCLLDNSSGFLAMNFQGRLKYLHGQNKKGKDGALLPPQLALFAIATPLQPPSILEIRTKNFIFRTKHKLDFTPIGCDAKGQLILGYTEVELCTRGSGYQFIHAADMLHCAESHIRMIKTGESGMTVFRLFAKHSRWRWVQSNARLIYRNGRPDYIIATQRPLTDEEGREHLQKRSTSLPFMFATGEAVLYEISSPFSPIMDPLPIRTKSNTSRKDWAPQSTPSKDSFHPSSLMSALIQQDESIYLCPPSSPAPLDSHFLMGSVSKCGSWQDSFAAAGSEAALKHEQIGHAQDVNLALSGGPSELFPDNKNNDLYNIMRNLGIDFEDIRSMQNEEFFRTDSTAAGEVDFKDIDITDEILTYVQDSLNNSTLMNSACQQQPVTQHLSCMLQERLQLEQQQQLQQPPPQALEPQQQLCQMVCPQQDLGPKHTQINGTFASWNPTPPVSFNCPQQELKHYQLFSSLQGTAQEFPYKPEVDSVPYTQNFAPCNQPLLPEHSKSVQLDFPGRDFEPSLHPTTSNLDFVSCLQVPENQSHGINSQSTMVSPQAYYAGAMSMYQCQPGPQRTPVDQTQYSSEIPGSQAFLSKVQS
Sequence of AhR-ARNT heterodimer (mouse AhR + human ARNT) (P27540 whole entry, chain 2 of 2): as the sequence (P27540 whole entry, one chain of several) above
Experimental: as §1

[4] = target: T1, AhR (human) alone (Homo sapiens, UniProt P35869 SEQ:1-848); assay: EMSA; no binding without ARNT; conditions: label: 32P end-label; 5' TCGA overhangs
T1 chain: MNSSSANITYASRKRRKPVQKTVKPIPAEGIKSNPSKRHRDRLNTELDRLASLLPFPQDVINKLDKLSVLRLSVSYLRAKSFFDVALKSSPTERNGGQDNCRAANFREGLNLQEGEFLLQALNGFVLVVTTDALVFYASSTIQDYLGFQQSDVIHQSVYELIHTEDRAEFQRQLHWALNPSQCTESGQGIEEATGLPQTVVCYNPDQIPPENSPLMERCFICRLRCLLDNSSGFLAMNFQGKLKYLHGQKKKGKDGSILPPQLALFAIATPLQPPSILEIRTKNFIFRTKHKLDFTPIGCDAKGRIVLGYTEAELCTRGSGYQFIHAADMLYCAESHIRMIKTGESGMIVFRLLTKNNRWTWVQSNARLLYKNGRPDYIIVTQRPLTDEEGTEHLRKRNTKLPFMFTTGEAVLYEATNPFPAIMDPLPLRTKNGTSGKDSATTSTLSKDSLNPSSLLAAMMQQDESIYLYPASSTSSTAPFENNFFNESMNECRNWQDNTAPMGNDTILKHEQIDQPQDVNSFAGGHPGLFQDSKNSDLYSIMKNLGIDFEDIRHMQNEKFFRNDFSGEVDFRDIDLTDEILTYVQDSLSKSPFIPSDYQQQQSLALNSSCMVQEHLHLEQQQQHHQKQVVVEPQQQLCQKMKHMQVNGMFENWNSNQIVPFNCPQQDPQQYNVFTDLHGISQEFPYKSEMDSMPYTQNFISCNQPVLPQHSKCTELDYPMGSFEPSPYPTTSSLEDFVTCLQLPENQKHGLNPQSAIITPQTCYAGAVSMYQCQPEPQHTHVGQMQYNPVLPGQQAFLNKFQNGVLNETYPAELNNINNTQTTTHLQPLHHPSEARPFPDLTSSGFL
Experimental: as §1

Sequence of AhR-ARNT heterodimer (human AhR + human ARNT) (P27540 whole entry, one chain of several): as the sequence (P27540 whole entry, one chain of several) above

B1: DRE3 (dsDNA)
DNA 1: TCGAGTAGATCACGCAATGGGCCCAGC
DNA 2: TCGAGCTGGGCCCATTGCGTGATCTAC
- binding result [1]: binds
- binding result [2]: no binding
- binding result [3]: binds
- binding result [4]: no binding
